The results in this text go back to paper PMC4650419 (Cell Research, 2015).

The target of the assay is MERS-CoV spike receptor-binding domain (spike residues 367-606), hexa-His tagged (MERS-CoV, isolate EMC/2012 (GenBank …)). The assay can be described thus: SPR.

B1: mouse monoclonal antibody 4C2 (IgG1) (antibody, V domains shown)
VH: DVKLVESGGGLVKPGGSLKLSCAASGFTFSSYTMSWVRQTPEKRLEWVATISSGGSYTYYPDSVKGRFTISRDNAKNTLYLQMSSLKSEDTAMYYCTRDGNDYDYWGQGTTLTVSS
VL: DIQMTQTTSSLSASLGDRVTISCRASQDISNYLNWYQQKPDGTVKLLIYYTSRLHSGVPSRFSGSGSGTDYSLTISNLEQEDIATYFCQQGNTLPRTFGGGTKLEIK
With B1, the affinity, expressed as Kd, was 162 nM.

B2: humanized 4C2 (4C2h), full-length antibody (antibody, V domains shown)
VH: QVQLQESGGGLVKPGGSLKLSCAASGFTFSSYTMSWVRQTPDKRLEWVATISSGGSYTYYPDSVKGRFTISRDNAKNTLYLQMSSLKSEDTAMYYCARDGNDYDYWGQGTMVTVSS
VL: DIQLTQSPSSLSASIGDRVTITCQASQDISNYLNWYQQRPGQAPKLLIYYTSRLHSGVPSRFSGRGSGTSFTIAINSFQAEDIGTYFCQQGNTLPRTFGGGTRVEIK
Turning to B2, the Kd was ~217 nM.

B3: mouse monoclonal antibody 2E6 (IgG1) (antibody, V domains shown)
VH: QVQLKGSGPGLVAPSQSLSITCTVSGFSLTGYGVNWVRQPPGKGLEWLGMIWGDGSTDYNSALKSRLSISKDNSKSQVFLKMNSLQTDDTARYYCARVGDYGDYFDYWGQGTTLTVSS
VL: DIQMTQSPASLSASVGETVTITCRASENIYSYLAWYQQKQGKSPQLLVYNAKTLAEGVPSRFSGSGSGTQFSLKINSLQPEDFGSYYCQHHYGTPWFGGGTKLEIK
Molecule B3 had a Kd of 60.3 nM.
